Assay results published in patent publication US20260234261A1 (published 2026).
Positions count from the first letter of the chain named. Like-named read-outs stand apart in the source and are kept apart here. Each block holds one binder with its values, some of them ahead of it.

Assays:
Test in all cases: FACS binding
[1] = biological target: T1, human CTLA4 (overexpressed on CHOS-hCTLA4 cells) (human, UniProt P16410 36-223)
[2] = biological target: T2, human CTLA4 and human CCR8 co-expressed on CHOS-hCTLA4/hCCR8 double-positive cells (human, UniProt P16410 36-223; P51685 1-355)
[3] = biological target: T3, human CCR8 (overexpressed on CHOS-hCCR8 cells) (human, UniProt P51685 1-355)
[4] = biological target: T1, human CTLA4 (overexpressed on …); remark: listed apart in the source
[5] = biological target: T2, human CTLA4 and human CCR8 co-expressed …; remark: listed apart in the source
[6] = biological target: T2, human CTLA4 and human CCR8 co-expressed …; remark: listed apart in the source
[7] = biological target: T3, human CCR8 (overexpressed on CHOS-hCCR8 …); remark: listed apart in the source
[8] = biological target: T2, human CTLA4 and human CCR8 co-expressed …; remark: listed apart in the source
[9] = biological target: T3, human CCR8 (overexpressed on CHOS-hCCR8 …); remark: listed apart in the source
[10] = biological target: T3, human CCR8 (overexpressed on CHOS-hCCR8 …); remark: listed apart in the source
[11] = biological target: T1, human CTLA4 (overexpressed on …); remark: listed apart in the source

T3 sequence (P51685 whole entry): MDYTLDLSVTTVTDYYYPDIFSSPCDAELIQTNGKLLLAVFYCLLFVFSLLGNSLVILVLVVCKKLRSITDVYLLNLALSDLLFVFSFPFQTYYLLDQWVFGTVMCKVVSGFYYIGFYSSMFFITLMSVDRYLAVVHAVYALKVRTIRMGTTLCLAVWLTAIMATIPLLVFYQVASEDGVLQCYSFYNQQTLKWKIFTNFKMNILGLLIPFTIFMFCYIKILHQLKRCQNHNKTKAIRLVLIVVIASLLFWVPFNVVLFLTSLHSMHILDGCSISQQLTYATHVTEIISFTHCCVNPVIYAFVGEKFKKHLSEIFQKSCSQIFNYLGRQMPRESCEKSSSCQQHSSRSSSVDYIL
T2 sequence (P16410 36-223, chain 1 of 2): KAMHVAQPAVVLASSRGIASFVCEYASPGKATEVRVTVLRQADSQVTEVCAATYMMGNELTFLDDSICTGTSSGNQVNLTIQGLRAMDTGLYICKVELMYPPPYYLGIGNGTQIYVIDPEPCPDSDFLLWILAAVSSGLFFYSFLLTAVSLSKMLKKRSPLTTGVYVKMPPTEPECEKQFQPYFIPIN
T2 sequence (P51685 whole entry, chain 2 of 2): as the sequence (P51685 whole entry) above
T1 sequence (P16410 36-223): as the sequence (P16410 36-223, chain 1 of 2) above

EC50 [1]: 28.2 nM
EC50 [2]: 11.3 nM
EC50 [3]: 6.55 nM
B1: Anti-CTLA4(ip-05)×CCR8-6 (bispecific antibody)
heavy 1: not shown
light 1: not shown
heavy 2: not shown
light 2: EIVLTQSPATLSLSPGERATLSCRASQSVSSYLAWYQQKPGQAPRLLIYDASNRATGIPARFSGSGSGTDFTLTISSLEPEDFAVYYCQQYSAWPLTFGGGTKVEIKRTVAAPSVFIFPPSDEELKSGTASVQCLLNNFYPREAKVQWKVDNALQSGNSQESVTEQDSKDSTYSLSSELTLSKADYEKHKVYACEVTHQGLSSPVTKSFNRGEC

EC50 [1]: 77.4 nM
EC50 [2]: 20.8 nM
EC50 [3]: 43.9 nM
B2: Anti-CTLA4(ip-05)×CCR8-4 (bispecific antibody)
heavy 1: not shown
light 1: not shown
heavy 2: not shown
light 2: B1 light 2 with E124Q, T129R, Q133V, E178R, T180Q

EC50 [4]: 0.521 nM
EC50 [5]: 0.623 nM
B3: ONC-392 Analog (antibody, V domains shown)
VH: QVQLQESGPGLVKPSETLSLTCTVSGFSLTSYGLSWIRQPPGKGLEWIGYIWYDGNTNFHSPLKSRVTISVDTSKNQFSLKLSSVTAADTAVYYCAKTEGHYYGSNYGYYALDYWGQGTLVTVSS
VL: DIQMTQSPSSLSASVGDRVTITCRASENIYSNLAWYQQKQGKAPKLLLYAATNLQDGVPSRFSGSGSGTDYTLTISSLQPEDFATYFCQHLWGTPYTFGQGTKLEIKR

EC50 [5]: 22.2 nM
B4: Anti-CCR8(ADI68741-R2-21-DA)-Afu (antibody, V domains shown)
VH: EVQLVQSGAEVKKPGASVKVSCKASGYTFTSYYMHWVRQAPGQGLEWMGIINPMTGSASHAQKFQGRVTMTRDTSTSTVYMELSSLRSEDTAVYYCVRDAAARHKYFAFWGRGTLVTVSS
VL: EIVLTQSPATLSLSPGERATLSCRASQSVSSYLAWYQQKPGQAPRLLIYDASNRATGIPARFSGSGSGTDFTLTISSLEPEDFAVYYCQQYSAWPLTFGGGTKVEIKR

EC50 [5]: 0.595 nM
B5: Anti-CCR8(ADI68741)-1 Afu (antibody, V domains shown)
VH: B4 VH with M54G, A58T, V97A, A100G, A102F, A108D, F109L
VL: B4 VL

EC50 [6]: 0.351 nM
EC50 [7]: 0.743 nM
EC50 [8]: 0.194 nM
EC50 [9]: 0.215 nM
B6: Anti-CCR8(ADI68741)-1 (antibody, V domains shown)
VH: B4 VH with M54G, A58T, V97A, A100G, A102F, A108D, F109L
VL: B4 VL

EC50 [8]: 361 nM
B7: Anti-CTLA4(ip-0508) (antibody, V domains shown)
VH: EVQLVESGGGVVQPGRSLRLSCAASGFTFSSYTMHWVRQAPGKGLEWVTFISEDGNNKYYADSVKGRFTISRDNSKNTLYLQMNSLRAEDTAIYYCARTGWLGPEDYWGQGTLVTVSS
VL: not shown

EC50 [4]: 3.98 nM
EC50 [5]: 98.2 nM
EC50 [10]: 51.7 nM
B8: Anti-CTLA4(ip-05)-1 Afu (antibody, V domains shown)
VH: B7 VH with E105F
VL: not shown

EC50 [11]: 3.6 nM
EC50 [6]: 11.8 nM
B9: Anti-CTLA4(ip-05)-1 (antibody, V domains shown)
VH: B7 VH with E105F
VL: not shown
